Laboratory results as given in patent US6613506B1, “Compositions and methods for inhibiting human immunodeficiency virus infection by down-regulating human cellular genes” (Subsidiary No. 3, Inc., priority 2000, dated 2003).

Key:
[1] = test system: latent HIV provirus in OM10.1 cells; assay: Induction of latent HIV provirus by TNF-α in OM10.1 cells (CD4 retention, p24); assay type: cell-based, HIV-1
Procedure: In order to determine p24 expression in HIV-infected cells, the cells were first washed twice with Assay Buffer. About 10^6 cells were suspended in 100 μL Assay Buffer, mixed with 2 mL of Ortho PermeaFix Solution (available from Ortho Diagnostics), and incubated for 40 min. at room temperature. After centrifugation at 1200 rpm for 4 min. at 4EC, the cells were resuspended in 2 mL Wash Buffer (500 mL PBS, 25 mL fetal bovine serum, 1.5% bovine serum albumin and 0.0055% EDTA) for 10 min. at room temperature. After centrifugation, the cells were resuspended in 50 ΦL Wash Buffer and mixed with 1:500 dilution of an IgG2a antibody for 20 min. at 4EC, followed by incubation with 5-10 ΦL of anti-p24 antibody (KC57-FITC, available from Coulter) for 30 min. at 4EC. The cells were then washed twice with Wash Buffer and analyzed by flow cytometry.
(§1) One strategy selected for GSEs which suppressed productive infection of cells by HIV. The second strategy selected for GSEs which suppressed induction of the latent provirus in OM10.1 cells. When OM10.1 cells were treated with TNF-α and stained with an antibody specific for the cell surface molecule CD4, a rapid loss of CD4 expression was observed (FIG. 1). In contrast, the vast majority of the uninduced OM10.1 cells retained CD4 expression. It is believed that activation of the latent virus in OM10.1 cells by TNF-α leads to the production of viral protein gp120, which binds to cytoplasmic CD4, thereby preventing its translocation to the cell surface. A diminution of CD4^+ OM10.1 cells also correlates with an increased production of viral protein p24 in the cells following TNF-α induction.
OM10.1 cells were cultured in RPMI 1640 glucose-free media prior to and during incubation with NADH dehydrogenase inhibitors and TNF-á induction. The inhibitors were added to the cells followed by TNF-á induction 1-2 hours later. The expression of CD4 by the cells was assessed by anti-CD4 antibody staining and flow cytometry after 24 hour incubation at 37° C.

HIV = assay: Selection of GSEs from RFE libraries using OM10.1 and CEM-ss cells (strategy not stated per GSE); assay type: cell-based, HIV-1; details: GSEs matching NADH dehydrogenase subunit genes
Procedure: (§2) The libraries prepared from HL-60 cells according to the method of Section A of this Example, were transfected into the packaging cell line, PA317 (ATCC CRL #9078), and converted into retrovirus for infection of OM10.1 cells. Libraries in pLNCX vector were co-cultured and selected with G418. Libraries in pLNGFRM vector were transduced by spinoculation (centrifugation of target cells at 1200×g for 90 min. in the presence of filtered retroviral supernatant; Dunn et al., 1999, Gene Therapy 6: 133-137) and selected by FACS sorting of the NGFR^+ population. After selection, the OM10.1 cells harboring the entire RFE library were induced with 10 U/mL of TNF-α at 37EC, and 24 hours later, were stained with an antibody and sorted for CD4 expression. Genomic DNA from the CD4^+ cells was purified and used for PCR amplification of inserts with the vector-derived primers. The amplified mixture was digested with EcoRI and BamHI and cloned back into the retroviral vector. The selection was repeated for additional rounds.
Additionally, a normalized RFE library made from HeLa cells was transferred into CEM-ss cells and the neo resistant population was infected with TCID50 of 3000/10^6 cells of HIV-1IIIB. This RFE library was represented by 50×10^6 independent recombinant clones. Four and seven days after infection, a purified anti-CD4 monoclonal antibody, L77 (available from Becton Dickinson), was added at 5 Φg/mL to prevent syncytia formation. Syncytia formation is thought to be prevented by blocking the interaction between gp120 expressed on the surface of an infected cell and CD4 on the surface of an uninfected cell. […] At 10-12 days after infection, CD4^+, p24^− cell population representing uninfected cells were sorted. Genomic DNA from the CD4^+, p24^− cells was purified and used for PCR amplification of inserts with the vector-derived primers. The amplified mixture was digested with EcoRI and BamHI and cloned back into the retroviral vector. The selection was repeated for additional rounds.
as §1
GSEs derived from cDNAs representing expressed human cellular genes were identified and isolated from a RFE library made from HL-60 cells using HIV provirus activation in OM10.1 cells as a read-out. Following transfection of the entire library into a packaging cell line, retrovirus carrying the library was used to infect OM10.1 cells by co-cultivation or spinoculation, and NGFR selection was performed to ensure the retention of the viral vector. When the infected cells were treated with TNF-α a small number of residual CD4^+ cells were detected by an anti-CD4 antibody and sorted by FACS. The GSEs contained in these cells were recovered by PCR amplification and their nucleotide sequences determined.
A total of twenty GSEs were isolated by the two aforementioned selection strategies using OM10.1 and CEM-ss cells. […] CF-315 was further shown to protect uninfected human T cells from a productive HIV-1 infection (FIG. 2). In this experiment, the retroviral vector, pLNGFRM, containing the CF-315 nucleic acid molecule was transferred into CEM-ss cells followed by NGFR selection. Vector containing plasmid DNA (denoted LNGFRM) was used as negative control. […]

HIV-1SF2 = assay: Protection of GSE-transduced CEM-ss cells from HIV-1SF2 infection (intracellular p24); assay type: cell-based; details: HIV-1SF2 at TCID50 of 1000, versus vector (LNGFRM) control
Source text: FIG. 2 illustrates the percentage of intracellular p24^+ CEM-ss cells containing the CF-315 sequence (SEQ ID NO:1) after infection with HIV-1SF2 at a TCID50 of 1000. CEM-ss cells (10^6) containing the C-315 construct or control vector DNA (denoted as LNGFRM) were harvested on the indicated days post infection, stained with FITC-conjugated anti-p24 monoclonal antibody and analyzed by flow cytometry. Mock infected cells, -⋄-; LNGFRM vector-infected cells, -[…]-; and C-315 infected cells, -Δ-.
FIG. 3 illustrates the percentage of intracellular p24^+ CEM-ss cells containing various GSEs: CF-004 (SEQ ID NO:7), CF-025 (SEQ ID NO:5), CF-113 (SEQ ID NO:8) and CF-204 (SEQ ID NO:9) after infection with HIV-1SF2 at a TCID50 of 1000. Controls include mock-infected, vector (LNGFRM)-infected and HIV-infected CEM-ss cells.
FIG. 4 illustrates the percentage of intracellular p24^+ CEM-ss cells containing CF-001 (SEQ ID NO:10) after infection with HIV-1SF2 at a TCID50 of 1000. Controls include mock-infected and vector (LNGFRM)-infected cells. […]
In order to determine p24 expression in HIV-infected cells, the cells were first washed twice with Assay Buffer. […] The cells were then washed twice with Wash Buffer and analyzed by flow cytometry. […]

[2] = test system: latent HIV-1 provirus in OM10.1 cells; assay: Selection of GSEs in OM10.1 cells (TNF-α induction of latent provirus, CD4+ sorting); assay type: cell-based
Procedure: as §2, with “The amplified mixture was digested with EcoRI and BamHI and cloned back into the retroviral vector. The selection was repeated for additional rounds.” left out
GSEs derived from cDNAs representing expressed human cellular genes were identified and isolated from a RFE library made from HL-60 cells using HIV provirus activation in OM10.1 cells as a read-out. […] When the infected cells were treated with TNF-α a small number of residual CD4^+ cells were detected by an anti-CD4 antibody and sorted by FACS. The GSEs contained in these cells were recovered by PCR amplification and their nucleotide sequences determined.

## CCC1(CCC(C)C)C(=O)NC(=O)NC1=O [amytal, Amytal]
[1]; TNF-α-induced OM10.1 cells, 24 hour incubation, FIG. 5 / FIG. 6
  inhibition of induction of latent HIV provirus (retention of CD4 expression): inhibited the induction of latent HIV provirus in OM10.1 cells in a dose-dependent manner
[1]; treated cells compared with untreated controls
  intracellular p24 levels: suppressed intracellular p24 levels

B1: CF-315: GSE, SEQ ID NO:1, antisense; NADH dehydrogenase ND6 subunit gene (nucleic acid, listed as Homo sapiens)
antisense: AGATCCTATTGGTGCGTGGGCTTTGTATGATTATGGGCGTAGATTAGTAGTAGTTACTGGTTGAACATTGTTTGTTGGTGTATATATTGTAATTGGGATTGCTCGGGGGAATAGGTTATGTGATTAGGAGTAGGG
HIV
  HIV-suppressive activity of the GSE and active orientation: suppresses HIV replication as an antisense molecule
HIV-1SF2
  inhibition of productive HIV infection (intracellular p24+ cells): inhibited infection of human T cells by HIV-1SF2

B2: CF-061: GSE, SEQ ID NO:19; portion of an unknown human cellular gene (nucleic acid, listed as Homo sapiens)
DNA: ACACACAGACACACAGACACAGAGAGACACACAGACACACACACAGAGATACACAGAGACACAGACACAGAAACACTCTGAGAGACACACACACAGAGACACACAGACACACAGACACAGAGAGACACACAGACACACACACACAGAGATACACAGAGACACAGACACAGAAA
[2]
  selection of the GSE: selected in OM10.1 cells
